Experimental data from PMC11446229, “CyaY and TusA regulate ISC- and SUF-mediated L-cysteine desulfurase activity†” (RSC Chemical Biology, 2024).

B3: SufS, cysteine desulfurase of the SUF system (enzyme, E. coli, UniProt P77444 1-406, looked up)
chain: MIFSVDKVRADFPVLSREVNGLPLAYLDSAASAQKPSQVIDAEAEFYRHGYAAVHRGIHTLSAQATEKMENVRKRASLFINARSAEELVFVRGTTEGINLVANSWGNSNVRAGDNIIISQMEHHANIVPWQMLCARVGAELRVIPLNPDGTLQLETLPTLFDEKTRLLAITHVSNVLGTENPLAEMITLAHQHGAKVLVDGAQAVMHHPVDVQALDCDFYVFSGHKLYGPTGIGILYVKEALLQEMPPWEGGGSMIATVSLSEGTTWTKAPWRFEAGTPNTGGIIGLGAALEYVSALGLNNIAEYEQNLMHYALSQLESVPDLTLYGPQNRLGVIAFNLGKHHAYDVGSFLDNYGIAVRTGHHCAMPLMAYYNVPAMCRASLAMYNTHEEVDRLVTGLQRIHRLLG
notes: SufS, L-cysteine desulfurase of E. coli; Seen by native MS as a dimer with associated PLP cofactors (89 956 Da; predicted 89 892 Da + (S0)2); Surmise: the predicted mass is larger than two natural chains plus two PLP, so a few residues may be left on each chain after thrombin cleavage; also called (SufS)2; dimeric SufS; source: E. coli BL21 DE3, plasmid pSL213, purified, (His)6-tag cleaved with …

Key:
[1] = target: B3; test: native MS; SufS (~8 uM, ~4 uM dimer) titrated with SufE; 250 mM ammonium acetate pH 8; relative intensities fitted to a sequential binding model (Dynafit); details: both partners purified
[2] = target: T1, SufSE complex (SufS dimer with bound SufE), formed before CyaY was added (E. coli, UniProt P77444 1-406; P76194 1-138); test: native MS; pre-formed SufSE complexes treated with a 4-fold excess of CyaY and titrated with CyaY up to about 35 uM; 250 mM ammonium acetate pH 8; only the first part of the titration measured, Kd an approximation; details: both partners purified
T1 construct: SufS, L-cysteine desulfurase of E. coli, as the chain of m4; SufE of E. coli, as the chain of m5; A mixture of complexes: mainly one or two SufE on each SufS dimer, with some (SufE)3(SufS)2 before CyaY was added; In the activity assay 30 uM SufS plus 90 uM SufE; also called SufE–SufS complexes; SufS/SufE; source: mixed from SufS and SufE, each purified from E. coli BL21 DE3; copies: 2 +
T1 sequence (looked up) 1: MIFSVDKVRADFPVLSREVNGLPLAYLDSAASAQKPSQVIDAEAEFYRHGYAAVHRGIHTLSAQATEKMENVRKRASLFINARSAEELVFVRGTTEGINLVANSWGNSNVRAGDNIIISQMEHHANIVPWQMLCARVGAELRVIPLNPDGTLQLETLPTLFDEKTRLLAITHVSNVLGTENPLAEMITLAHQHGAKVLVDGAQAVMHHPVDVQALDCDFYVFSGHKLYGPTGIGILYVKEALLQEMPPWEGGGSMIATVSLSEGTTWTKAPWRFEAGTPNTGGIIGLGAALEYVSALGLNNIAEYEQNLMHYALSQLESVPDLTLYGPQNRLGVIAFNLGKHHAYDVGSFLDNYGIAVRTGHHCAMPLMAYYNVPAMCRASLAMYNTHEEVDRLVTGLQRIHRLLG
T1 sequence (looked up) 2: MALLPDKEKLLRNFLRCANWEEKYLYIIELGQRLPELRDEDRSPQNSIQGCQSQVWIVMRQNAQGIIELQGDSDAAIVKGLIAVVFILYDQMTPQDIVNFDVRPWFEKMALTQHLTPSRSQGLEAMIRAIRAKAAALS

[3] = target: T2, IscS, cysteine desulfurase of the ISC system (E. coli, UniProt P0A6B7 1-404); test: native MS; IscS (8 uM, 4 uM dimer) pre-treated with 0.5 equivalents of TusA (4 uM), then titrated with CyaY; 250 mM ammonium acetate pH 8; relative intensities fitted to a simple competition binding model (Dynafit); details: both partners purified
T2 construct: IscS, L-cysteine desulfurase of E. coli; Seen by native MS as a dimer with associated PLP cofactors (90 662 Da; predicted 90 642 Da + Na); No tag is named for this construct; Surmise: the predicted mass fits two untagged whole chains plus two PLP; also called (IscS)2; dimeric IscS; source: E. coli BL21 DE3, plasmid pSL209, purified (previously published procedures)

[4] = target: the molecule itself; test: native MS; desulfurase alone, ~8 uM (~4 uM dimer), 250 mM ammonium acetate pH 8.0, deconvoluted spectrum

B1: SufE (natural protein, E. coli, UniProt P76194 1-138, looked up)
chain: MALLPDKEKLLRNFLRCANWEEKYLYIIELGQRLPELRDEDRSPQNSIQGCQSQVWIVMRQNAQGIIELQGDSDAAIVKGLIAVVFILYDQMTPQDIVNFDVRPWFEKMALTQHLTPSRSQGLEAMIRAIRAKAAALS
notes: SufE, sulfur acceptor of SufS, E. coli; Tag cleavage is told only of SufS and CyaY; Surmise: the printed mass interval of ~16.7 kDa for each SufE is larger than the natural chain, so the tag may have been kept; also called SufE-(His)6; source: E. coli BL21 DE3, plasmid pET15b, purified (previously published procedures)
- Kd of the first and second SufE on the SufS dimer (high affinity site) [1]: ~8 µM
- Kd of the third and fourth SufE on the SufS dimer (low affinity site) [1]: ~71 µM
- stoichiometry N [1]: ≤ 4 per SufS dimer

B2: CyaY, the frataxin homolog of Escherichia coli (natural protein, E. coli, UniProt P27838 1-106, looked up)
chain: MNDSEFHRLADQLWLTIEERLDDWDGDSDIDCEINGGVLTITFENGSKIIINRQEPLHQVWLATKQGGYHFDLKGDEWICDRSGETFWDLLEQAATQQAGETVSFR
notes: CyaY, frataxin homolog of E. coli; Two plasmids are named (pET15b or pMB10); also called CyaY-(His)6; source: E. coli BL21 DE3, plasmid pET15b or pMB10, purified, (His)6-tag cleaved with thrombin
- Kd [2]: ~70 µM
- Kd [3]: ~26 µM
- stoichiometry N [3]: ≤ 2 per IscS dimer

Binder: B3
- stoichiometry N [4]: 2
